Results on one molecule are retold here after patent US20250326818A1 (UNIVERSIT T BASEL, published 2025).

The target of the assay is T1, CD123 ECD S59P (human, UniProt P26951 19-305).
T1 construct: Recombinant ECD
T1 sequence: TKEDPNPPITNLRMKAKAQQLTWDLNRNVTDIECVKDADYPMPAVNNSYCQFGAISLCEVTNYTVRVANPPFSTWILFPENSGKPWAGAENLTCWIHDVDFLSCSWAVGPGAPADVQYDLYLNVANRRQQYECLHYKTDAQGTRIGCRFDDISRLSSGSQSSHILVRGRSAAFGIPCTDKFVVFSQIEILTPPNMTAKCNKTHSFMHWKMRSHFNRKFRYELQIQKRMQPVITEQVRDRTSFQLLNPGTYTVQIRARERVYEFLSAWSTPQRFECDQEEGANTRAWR
The assay is described as follows: BLI (Octet), biotinylated CD123 ECD captured on streptavidin tips, hIL3 as analyte, level at 250 s normalised to loading. How it is done: Binding of hIL3 (SinoBiological, PN: 11858-H08H) (analyte) to CD123 ECD wt. and variants (ligands) was performed using Streptavidin capture biosensor (SA) (Sartorius, PN: 18-5019). CD123 ECD wt. and variants were biotinylated using Biotinylation kit Type B (Abeam, PN: ab201796) following manufacturer instructions. Biotinylated CD123 ECD wt. and variants (ligands) were captured on SA tips for 1000 s to achieve a nm shift of 1.5 to 2 nm. Analyte hIL3 was titrated at 7 concentrations from 500 to 7.8 nM. Association to analyte was monitored for 300 s and dissociation for 120 s. Buffer only well was used as reference. No regeneration was performed, and a new set of tips was used for each biotinylated captured ligand. Data were analyzed using the Octet Data Analysis software HT 12.0. Due to the fast on/off nature of the interaction data were analyzed using Steady state analysis. Qualitative representation in FIG. 11 binding level were taken at 250 s association for all concentrations.
Background: Biolayer interferometry detects binding as a change in optical thickness at a sensor tip.

B1: hIL3 (ligand, human, UniProt P08700 20-152, looked up)
chain: APMTQTTPLKTSWVNCSNMIDEIITHLKQPPLPLLDFNNLNGEDQDILMENNLRRPNLEAFNRAVKSLQNASAIESILKNLLPCLPLATAAPTRHPIHIKDGDWNEFRRKLTFYLKTLENAQAQQTTLSLAIF
notes: also called Interleukin-3
Regarding B1, the binding result was “binds”.
